Assay results published in publication PMC4351158 (Structure (London, England : 1993), 2015).
Where a chain is given by its changes, count along the chain named. Where no end group is shown, it is not given here. fluorescein = fluorescein, a fluorescent label on the peptide N-terminus

Tests used:
Assay in all cases: fluorescence polarisation
DegS Q191A = molecular target: T1, DegS Q191A (E. coli, UniProt P0AEE3 27-355, Q191A)
T1 sequence (looked up): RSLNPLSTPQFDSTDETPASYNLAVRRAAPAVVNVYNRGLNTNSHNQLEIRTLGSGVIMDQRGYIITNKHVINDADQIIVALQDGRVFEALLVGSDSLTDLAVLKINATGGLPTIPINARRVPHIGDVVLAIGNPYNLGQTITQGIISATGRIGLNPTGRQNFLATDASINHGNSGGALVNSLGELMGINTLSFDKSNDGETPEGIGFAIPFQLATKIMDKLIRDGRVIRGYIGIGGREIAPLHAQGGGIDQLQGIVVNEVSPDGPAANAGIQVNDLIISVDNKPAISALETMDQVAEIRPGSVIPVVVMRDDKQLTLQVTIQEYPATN

DegS Q191A/H198P = molecular target: T2, DegS Q191A/H198P (E. coli, UniProt P0AEE3 27-355, Q191A | H198P)
T2 sequence (looked up): T1 sequence (looked up) with H172P

DegS H198P/F234A = molecular target: T3, DegS H198P/F234A (E. coli, UniProt P0AEE3 27-355, H198P | F234A)
T3 sequence (looked up): T1 sequence (looked up) with A165Q, H172P, F208A

DegS L164A = molecular target: T4, DegS L164A (E. coli, UniProt P0AEE3 27-355, L164A)
T4 sequence (looked up): T1 sequence (looked up) with L138A, A165Q

DegS T169A = molecular target: T5, DegS T169A (E. coli, UniProt P0AEE3 27-355, T169A)
T5 sequence (looked up): T1 sequence (looked up) with T143A, A165Q

DegS I179A = molecular target: T6, DegS I179A (E. coli, UniProt P0AEE3 27-355, I179A)
T6 sequence (looked up): T1 sequence (looked up) with I153A, A165Q

B1: fluorescent OMP peptide fluorescein-DNRDGNVYYF (peptide)
peptide: fluorescein-DNRDGNVYYF
Kd (DegS Q191A): 3400 ± 1300 nM | Kd (DegS Q191A/H198P): 1400 ± 100 nM | Kd (DegS H198P/F234A): 2900 ± 100 nM | Kd (DegS L164A): 2800 ± 600 nM | Kd (DegS T169A): 1800 ± 100 nM | Kd (DegS I179A): 2300 ± 400 nM
